Source: patent US12338277

Experiments:
Assay in all cases: cell-based or functional assay
[1] = molecular target: HIV-1 Env of pseudovirus 0260.v5.c36 (HIV-1)
[2] = molecular target: HIV-1 Env of pseudovirus 3817.v2.c59 (HIV-1)
[3] = molecular target: HIV-1 Env of pseudovirus 3016.v5.c45 (HIV-1)
[4] = molecular target: HIV-1 Env of pseudovirus X2088_c9 (HIV-1)
[5] = molecular target: HIV-1 Env of pseudovirus CNE52 (HIV-1)
[6] = molecular target: HIV-1 envelope of pseudovirus 211-9 (HIV-1)
[7] = molecular target: HIV-1 envelope of pseudovirus 6540.v4.c1 (HIV-1)
[8] = molecular target: HIV-1 envelope of pseudovirus BJOX025000.01.1 (HIV-1)
[9] = molecular target: HIV-1 Env of pseudovirus REJO4541.67 (HIV-1)
[10] = molecular target: HIV-1 envelope of pseudovirus BJOX010000.06.2 (HIV-1)
[11] = molecular target: HIV-1 Env of pseudovirus CAP210.2.00.E8 (HIV-1)
[12] = molecular target: HIV-1 Env of pseudovirus HIV-16845-2.22 (HIV-1)
[13] = molecular target: HIV-1 envelope of pseudovirus Ce0393_C3 (HIV-1)
[14] = molecular target: HIV-1 Env of pseudovirus Ce2010_F5 (HIV-1)
[15] = molecular target: HIV-1 Env of pseudovirus P1981_C5_3 (HIV-1)
[16] = molecular target: HIV-1 envelope of pseudovirus X2088_c9 (HIV-1)
[17] = molecular target: HIV-1 Env of pseudovirus HIV-001428-2.42 (HIV-1)
[18] = molecular target: HIV-1 envelope of pseudovirus 6041.v3.c23 (HIV-1)
[19] = molecular target: HIV-1 envelope of pseudovirus TRJO4551.58 (HIV-1)
[20] = molecular target: HIV-1 envelope of pseudovirus 0815.v3.c3 (HIV-1)
[21] = molecular target: HIV-1 envelope of pseudovirus 1054_07_TC4_1499 (HIV-1)
[22] = molecular target: HIV-1 envelope of pseudovirus Du422.1 (HIV-1)
[23] = molecular target: HIV-1 envelope of pseudovirus WITO4160.33 (HIV-1)
[24] = molecular target: HIV-1 envelope of pseudovirus X2131_C1_85 (HIV-1)
[25] = molecular target: HIV-1 envelope glycoprotein of pseudovirus CNE17 (clade BC) (HIV-1)
[26] = molecular target: HIV-1 envelope glycoprotein of pseudovirus RHPA4259.7 (clade B) (HIV-1)
[27] = molecular target: HIV-1 envelope glycoprotein of pseudovirus 235-47 (clade CRF02_AG) (HIV-1)
[28] = molecular target: HIV-1 envelope glycoprotein of pseudovirus CNE30 (clade BC) (HIV-1)
[29] = molecular target: HIV-1 envelope glycoprotein of pseudovirus 6952.v1.c20 (clade CD) (HIV-1)
[30] = molecular target: HIV-1 envelope glycoprotein of pseudovirus CNE52 (clade BC) (HIV-1)
[31] = molecular target: HIV-1 envelope glycoprotein of pseudovirus ZM214M.PL15 (clade C) (HIV-1)
[32] = molecular target: HIV-1 envelope glycoprotein of pseudovirus CNE19 (clade BC) (HIV-1)
[33] = molecular target: HIV-1 envelope glycoprotein of pseudovirus 0260.v5.c36 (clade A) (HIV-1)
[34] = molecular target: HIV-1 envelope glycoprotein of pseudovirus X1193 c1 (clade G) (HIV-1)
[35] = molecular target: HIV-1 envelope glycoprotein of pseudovirus T278-50 (clade CRF02 AG) (HIV-1)
[36] = molecular target: HIV-1 envelope glycoprotein of pseudovirus CNE58 (clade BC) (HIV-1)
[37] = molecular target: HIV-1 envelope glycoprotein of pseudovirus CAP45.2.00.G3 (clade C) (HIV-1)
[38] = molecular target: HIV-1 Env of pseudovirus BJOX009000.02.4 (HIV-1)
[39] = molecular target: HIV-1 envelope glycoprotein of pseudovirus 3365.v2.c2 (clade A) (HIV-1)
[40] = molecular target: HIV-1 envelope glycoprotein of pseudovirus Ce1172_H1 (clade C (T/F)) (HIV-1)
[41] = molecular target: HIV-1 envelope glycoprotein of pseudovirus Q842.d12 (clade A) (HIV-1)
[42] = molecular target: HIV-1 envelope glycoprotein of pseudovirus HIV-16055-2.3 (clade C) (HIV-1)
[43] = molecular target: HIV-1 envelope glycoprotein of pseudovirus 1394C9G1(Rev-) (clade C (T/F)) (HIV-1)
[44] = molecular target: HIV-1 envelope glycoprotein of pseudovirus YU.2 (clade B) (HIV-1) (UniProt P35961)
[45] = molecular target: HIV-1 envelope glycoprotein of pseudovirus 928-28 (clade CRF02_AG) (HIV-1)
[46] = molecular target: HIV-1 envelope glycoprotein of pseudovirus HIV-16845-2.22 (clade C) (HIV-1)
[47] = molecular target: HIV-1 envelope glycoprotein of pseudovirus TRJO4551.58 (clade B) (HIV-1)

Chain of 10-996 (antibody) (VH): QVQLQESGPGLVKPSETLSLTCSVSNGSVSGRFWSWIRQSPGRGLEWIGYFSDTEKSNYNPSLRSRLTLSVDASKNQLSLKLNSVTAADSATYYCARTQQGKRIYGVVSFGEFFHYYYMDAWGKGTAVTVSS
Chain of 10-996 (antibody) (VL): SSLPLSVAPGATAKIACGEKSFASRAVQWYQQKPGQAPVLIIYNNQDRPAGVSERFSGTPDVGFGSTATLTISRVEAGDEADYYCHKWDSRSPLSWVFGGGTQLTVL
Chain of 10-1074 (antibody) (VH): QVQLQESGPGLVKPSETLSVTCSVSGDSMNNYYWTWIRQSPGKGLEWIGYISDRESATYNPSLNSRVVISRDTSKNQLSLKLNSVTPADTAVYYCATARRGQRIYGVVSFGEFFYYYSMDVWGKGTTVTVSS
Chain of 10-1074 (antibody) (V domain): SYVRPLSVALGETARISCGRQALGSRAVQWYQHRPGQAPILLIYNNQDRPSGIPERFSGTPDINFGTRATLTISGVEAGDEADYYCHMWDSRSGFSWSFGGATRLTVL
Chain of HIV-1 envelope glycoprotein of pseudovirus YU.2 (clade B) (HIV-1) (P35961 32-843): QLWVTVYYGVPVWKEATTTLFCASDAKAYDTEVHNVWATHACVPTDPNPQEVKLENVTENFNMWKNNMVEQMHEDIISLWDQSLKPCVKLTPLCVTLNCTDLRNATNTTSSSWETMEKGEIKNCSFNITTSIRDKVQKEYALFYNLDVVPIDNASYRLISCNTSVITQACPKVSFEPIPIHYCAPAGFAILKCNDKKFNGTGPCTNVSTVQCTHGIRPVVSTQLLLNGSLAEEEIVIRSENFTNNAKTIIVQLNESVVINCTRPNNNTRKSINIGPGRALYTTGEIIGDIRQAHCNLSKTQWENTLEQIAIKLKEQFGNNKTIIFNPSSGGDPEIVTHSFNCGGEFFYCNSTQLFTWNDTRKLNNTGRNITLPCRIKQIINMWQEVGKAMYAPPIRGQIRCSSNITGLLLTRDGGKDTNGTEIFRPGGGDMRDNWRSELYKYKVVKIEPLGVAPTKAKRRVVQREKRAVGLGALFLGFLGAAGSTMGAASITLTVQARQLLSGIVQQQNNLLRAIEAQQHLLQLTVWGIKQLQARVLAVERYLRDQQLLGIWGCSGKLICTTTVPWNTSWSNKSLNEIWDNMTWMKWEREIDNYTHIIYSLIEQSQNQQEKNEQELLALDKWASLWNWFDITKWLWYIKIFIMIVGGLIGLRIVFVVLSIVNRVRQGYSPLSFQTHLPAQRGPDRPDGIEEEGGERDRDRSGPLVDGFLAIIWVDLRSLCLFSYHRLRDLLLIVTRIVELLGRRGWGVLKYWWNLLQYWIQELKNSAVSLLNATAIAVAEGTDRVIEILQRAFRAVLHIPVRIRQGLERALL

Substance: 10-996 (antibody)
- IC80 (TZM-bl neutralization) [1]: 0.436 µg/mL
- IC80 (TZM-bl neutralization) [2]: 34.6 µg/mL
- IC80 (TZM-bl neutralization) [3]: > 50 µg/mL
- IC80 (TZM-bl neutralization) [4]: 0.014 µg/mL
- IC80 (TZM-bl neutralization) [5]: 43.8 µg/mL
- IC50 (TZM-bl neutralization) [6]: 0.75 µg/mL
- IC50 (TZM-bl neutralization) [7]: > 50 µg/mL
- IC50 (TZM-bl neutralization) [8]: > 50 µg/mL
- IC80 (TZM-bl neutralization) [9]: > 50 µg/mL
- IC50 (TZM-bl neutralization) [10]: > 50 µg/mL
- IC80 (TZM-bl neutralization) [11]: > 50 µg/mL
- IC80 (TZM-bl neutralization) [12]: 9.93 µg/mL
- IC50 (TZM-bl neutralization) [13]: > 50 µg/mL
- IC80 (TZM-bl neutralization) [14]: > 50 µg/mL
- IC80 (TZM-bl neutralization) [15]: 0.018 µg/mL
- IC50 (TZM-bl neutralization) [16]: 0.002 µg/mL
- IC80 (TZM-bl neutralization) [17]: 0.204 µg/mL
- IC50 (TZM-bl neutralization) [18]: > 50 µg/mL
- IC50 (TZM-bl neutralization) [19]: 0.147 µg/mL
- IC50 (TZM-bl neutralization) [20]: 0.061 µg/mL
- IC50 (TZM-bl neutralization) [21]: 0.26 µg/mL
- IC50 (TZM-bl neutralization) [22]: 0.056 µg/mL
- IC50 (TZM-bl neutralization) [23]: 0.538 µg/mL
- IC50 (TZM-bl neutralization) [24]: 0.019 µg/mL

Substance: 10-1074 (antibody)
- IC50 in the TZM-bl neutralization assay [25]: 13.3 µg/mL
- IC80 (TZM-bl neutralization) [1]: 0.16 µg/mL
- IC50 in the TZM-bl neutralization assay [26]: 0.118 µg/mL
- IC80 (TZM-bl neutralization) [2]: 14.9 µg/mL
- IC80 (TZM-bl neutralization) [3]: > 50 µg/mL
- IC50 in the TZM-bl neutralization assay [27]: 0.163 µg/mL
- IC80 (TZM-bl neutralization) [4]: 0.014 µg/mL
- IC80 (TZM-bl neutralization) [5]: 13.1 µg/mL
- IC50 (TZM-bl neutralization) [6]: 0.112 µg/mL
- IC50 in the TZM-bl neutralization assay [28]: 1.2 µg/mL
- IC50 (TZM-bl neutralization) [7]: > 50 µg/mL
- IC50 (TZM-bl neutralization) [8]: > 50 µg/mL
- IC50 in the TZM-bl neutralization assay [29]: 0.138 µg/mL
- IC80 (TZM-bl neutralization) [9]: > 50 µg/mL
- IC50 in the TZM-bl neutralization assay [30]: 13.1 µg/mL
- IC50 (TZM-bl neutralization) [10]: > 50 µg/mL
- IC80 (TZM-bl neutralization) [11]: > 50 µg/mL
- IC50 in the TZM-bl neutralization assay [31]: 2.37 µg/mL
- IC80 (TZM-bl neutralization) [12]: 5.83 µg/mL
- IC50 (TZM-bl neutralization) [13]: > 50 µg/mL
- IC80 (TZM-bl neutralization) [14]: > 50 µg/mL
- IC50 in the TZM-bl neutralization assay [32]: 50 µg/mL
- IC80 (TZM-bl neutralization) [15]: 0.017 µg/mL
- IC50 in the TZM-bl neutralization assay [33]: 0.16 µg/mL
- IC50 in the TZM-bl neutralization assay [34]: 0.475 µg/mL
- IC50 in the TZM-bl neutralization assay [35]: 18.3 µg/mL
- IC50 in the TZM-bl neutralization assay [36]: 0.968 µg/mL
- IC50 in the TZM-bl neutralization assay [37]: > 50 µg/mL
- IC80 (TZM-bl neutralization) [38]: > 50 µg/mL
- IC50 (TZM-bl neutralization) [16]: 0.003 µg/mL
- IC80 (TZM-bl neutralization) [17]: 0.261 µg/mL
- IC50 in the TZM-bl neutralization assay [39]: 0.45 µg/mL
- IC50 in the TZM-bl neutralization assay [40]: 0.166 µg/mL
- IC50 in the TZM-bl neutralization assay [41]: > 50 µg/mL
- IC50 (TZM-bl neutralization) [18]: > 50 µg/mL
- IC50 in the TZM-bl neutralization assay [42]: > 50 µg/mL
- IC50 (TZM-bl neutralization) [19]: 0.17 µg/mL
- IC50 (TZM-bl neutralization) [20]: 0.03 µg/mL
- IC50 (TZM-bl neutralization) [21]: 0.129 µg/mL
- IC50 in the TZM-bl neutralization assay [43]: 0.191 µg/mL
- IC50 (TZM-bl neutralization) [22]: 0.045 µg/mL
- IC50 (TZM-bl neutralization) [23]: 0.185 µg/mL
- IC50 in the TZM-bl neutralization assay [44]: 0.398 µg/mL
- IC50 (TZM-bl neutralization) [24]: 0.016 µg/mL
- IC50 in the TZM-bl neutralization assay [45]: 4.7 µg/mL
- IC50 in the TZM-bl neutralization assay [46]: 5.83 µg/mL
- IC50 in the TZM-bl neutralization assay [47]: 0.634 µg/mL

Substance: PGT121 (antibody)
- IC50 in the TZM-bl neutralization assay [25]: > 50 µg/mL
- IC80 (TZM-bl neutralization) [1]: 0.152 µg/mL
- IC50 in the TZM-bl neutralization assay [26]: 0.054 µg/mL
- IC80 (TZM-bl neutralization) [2]: > 50 µg/mL
- IC80 (TZM-bl neutralization) [3]: > 50 µg/mL
- IC50 in the TZM-bl neutralization assay [27]: 1.68 µg/mL
- IC80 (TZM-bl neutralization) [5]: 32.9 µg/mL
- IC50 (TZM-bl neutralization) [6]: 1.46 µg/mL
- IC50 in the TZM-bl neutralization assay [28]: 0.559 µg/mL
- IC50 (TZM-bl neutralization) [7]: > 50 µg/mL
- IC50 (TZM-bl neutralization) [8]: > 50 µg/mL
- IC50 in the TZM-bl neutralization assay [29]: 0.605 µg/mL
- IC80 (TZM-bl neutralization) [9]: > 50 µg/mL
- IC50 in the TZM-bl neutralization assay [30]: 32.9 µg/mL
- IC50 (TZM-bl neutralization) [10]: > 50 µg/mL
- IC80 (TZM-bl neutralization) [11]: > 50 µg/mL
- IC50 in the TZM-bl neutralization assay [31]: 3.15 µg/mL
- IC80 (TZM-bl neutralization) [12]: > 50 µg/mL
- IC50 (TZM-bl neutralization) [13]: > 50 µg/mL
- IC80 (TZM-bl neutralization) [14]: > 50 µg/mL
- IC50 in the TZM-bl neutralization assay [32]: 0.189 µg/mL
- IC50 in the TZM-bl neutralization assay [33]: 0.152 µg/mL
- IC50 in the TZM-bl neutralization assay [34]: 0.202 µg/mL
- IC50 in the TZM-bl neutralization assay [35]: > 50 µg/mL
- IC50 in the TZM-bl neutralization assay [36]: > 50 µg/mL
- IC50 in the TZM-bl neutralization assay [37]: 6.54 µg/mL
- IC80 (TZM-bl neutralization) [38]: 37.3 µg/mL
- IC80 (TZM-bl neutralization) [17]: 0.156 µg/mL
- IC50 in the TZM-bl neutralization assay [39]: 7.35 µg/mL
- IC50 in the TZM-bl neutralization assay [40]: 0.088 µg/mL
- IC50 in the TZM-bl neutralization assay [41]: 0.074 µg/mL
- IC50 (TZM-bl neutralization) [18]: > 50 µg/mL
- IC50 in the TZM-bl neutralization assay [42]: 4.29 µg/mL
- IC50 (TZM-bl neutralization) [19]: 3.73 µg/mL
- IC50 (TZM-bl neutralization) [21]: 0.115 µg/mL
- IC50 in the TZM-bl neutralization assay [43]: 3.37 µg/mL
- IC50 (TZM-bl neutralization) [23]: 0.459 µg/mL
- IC50 in the TZM-bl neutralization assay [44]: 0.356 µg/mL
- IC50 in the TZM-bl neutralization assay [45]: > 50 µg/mL
- IC50 in the TZM-bl neutralization assay [46]: > 50 µg/mL
- IC50 in the TZM-bl neutralization assay [47]: 35.3 µg/mL
